Data reported in article PMC12416549 (2024).

Biological target: T1, TNFR1 (Homo sapiens, UniProt P19438)
T1 chain: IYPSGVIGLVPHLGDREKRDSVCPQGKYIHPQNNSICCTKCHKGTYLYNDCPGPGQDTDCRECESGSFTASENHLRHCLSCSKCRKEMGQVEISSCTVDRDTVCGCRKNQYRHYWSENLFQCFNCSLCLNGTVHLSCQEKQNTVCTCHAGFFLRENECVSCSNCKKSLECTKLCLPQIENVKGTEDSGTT
Experiment: yeast display SC50

B1: Y37A (designed binder)
chain: MTLQELLREEALRRAEAEAFRYALELLAEKFPEQKEALLDLAEEIESQIRSLSGVDVEDVRKFLDKEWAWVKELLAEHPAELAEVEAARAARLAELRAEVEAKVAA
Q: How did the “apparent Kd (screen)” value turn out when B1 was run?
A: 24.4 nM

B2: V85R (designed binder)
chain: MTLQELLREEALRRAEAEAFRYALELLAEKFPEQKEYLLDLAEEIESQIRSLSGVDVEDVRKFLDKEWAWVKELLAEHPAELAEREAARAARLAELRAEVEAKVAA
Q: B2 was tested. Which “apparent Kd (screen)” value did it give?
A: 13.8 nM

B3: L75R (designed binder)
chain: MTLQELLREEALRRAEAEAFRYALELLAEKFPEQKEYLLDLAEEIESQIRSLSGVDVEDVRKFLDKEWAWVKELRAEHPAELAEVEAARAARLAELRAEVEAKVAA
Q: Which “apparent Kd (screen)” value does the source give for B3 here?
A: 0.653 nM

B4: V71R (designed binder)
chain: MTLQELLREEALRRAEAEAFRYALELLAEKFPEQKEYLLDLAEEIESQIRSLSGVDVEDVRKFLDKEWAWRKELLAEHPAELAEVEAARAARLAELRAEVEAKVAA
Q: With B4 as the binder, how does the “apparent Kd (screen)” value read?
A: 24.4 nM

B5: L24D (designed binder)
chain: MTLQELLREEALRRAEAEAFRYADELLAEKFPEQKEYLLDLAEEIESQIRSLSGVDVEDVRKFLDKEWAWVKELLAEHPAELAEVEAARAARLAELRAEVEAKVAA
Q: For B5, which “apparent Kd (screen)” value is on record?
A: 1.86 nM

B6: L38N (designed binder)
chain: MTLQELLREEALRRAEAEAFRYALELLAEKFPEQKEYNLDLAEEIESQIRSLSGVDVEDVRKFLDKEWAWVKELLAEHPAELAEVEAARAARLAELRAEVEAKVAA
Q: With B6 as the binder, how does the “apparent Kd (screen)” value read?
A: 1.86 nM

B7: D56W (designed binder)
chain: MTLQELLREEALRRAEAEAFRYALELLAEKFPEQKEYLLDLAEEIESQIRSLSGVWVEDVRKFLDKEWAWVKELLAEHPAELAEVEAARAARLAELRAEVEAKVAA
Q: How did the “apparent Kd (screen)” value turn out when B7 was run?
A: 1.69 nM

B8: E84R (designed binder)
chain: MTLQELLREEALRRAEAEAFRYALELLAEKFPEQKEYLLDLAEEIESQIRSLSGVDVEDVRKFLDKEWAWVKELLAEHPAELARVEAARAARLAELRAEVEAKVAA
Q: With B8 as the binder, how does the “apparent Kd (screen)” value read?
A: 0.79 nM

B9: I45H (designed binder)
chain: MTLQELLREEALRRAEAEAFRYALELLAEKFPEQKEYLLDLAEEHESQIRSLSGVDVEDVRKFLDKEWAWVKELLAEHPAELAEVEAARAARLAELRAEVEAKVAA
Q: With B9 as the binder, how does the “apparent Kd (screen)” value read?
A: 0.956 nM

B10: A102T (designed binder)
chain: MTLQELLREEALRRAEAEAFRYALELLAEKFPEQKEYLLDLAEEIESQIRSLSGVDVEDVRKFLDKEWAWVKELLAEHPAELAEVEAARAARLAELRAEVETKVAA
Q: How did the “apparent Kd (screen)” value turn out when B10 was run?
A: 0.79 nM

B11: A90L (designed binder)
chain: MTLQELLREEALRRAEAEAFRYALELLAEKFPEQKEYLLDLAEEIESQIRSLSGVDVEDVRKFLDKEWAWVKELLAEHPAELAEVEAARLARLAELRAEVEAKVAA
Q: B11 was tested. Which “apparent Kd (screen)” value did it give?
A: 0.653 nM

B12: E99C (designed binder)
chain: MTLQELLREEALRRAEAEAFRYALELLAEKFPEQKEYLLDLAEEIESQIRSLSGVDVEDVRKFLDKEWAWVKELLAEHPAELAEVEAARAARLAELRACVEAKVAA
Q: B12 was tested. Which “apparent Kd (screen)” value did it give?
A: 0.653 nM

B13: D65I (designed binder)
chain: MTLQELLREEALRRAEAEAFRYALELLAEKFPEQKEYLLDLAEEIESQIRSLSGVDVEDVRKFLIKEWAWVKELLAEHPAELAEVEAARAARLAELRAEVEAKVAA
Q: With B13 as the binder, how does the “apparent Kd (screen)” value read?
A: 0.405 nM

B14: K62Y (designed binder)
chain: MTLQELLREEALRRAEAEAFRYALELLAEKFPEQKEYLLDLAEEIESQIRSLSGVDVEDVRYFLDKEWAWVKELLAEHPAELAEVEAARAARLAELRAEVEAKVAA
Q: Which “apparent Kd (screen)” value does the source give for B14 here?
A: 0.446 nM

B15: K62E (designed binder)
chain: MTLQELLREEALRRAEAEAFRYALELLAEKFPEQKEYLLDLAEEIESQIRSLSGVDVEDVREFLDKEWAWVKELLAEHPAELAEVEAARAARLAELRAEVEAKVAA
Q: Which “apparent Kd (screen)” value does the source give for B15 here?
A: 0.79 nM

B16: E67F (designed binder)
chain: MTLQELLREEALRRAEAEAFRYALELLAEKFPEQKEYLLDLAEEIESQIRSLSGVDVEDVRKFLDKFWAWVKELLAEHPAELAEVEAARAARLAELRAEVEAKVAA
Q: For B16, which “apparent Kd (screen)” value is on record?
A: 12.5 nM

B17: L39D (designed binder)
chain: MTLQELLREEALRRAEAEAFRYALELLAEKFPEQKEYLDDLAEEIESQIRSLSGVDVEDVRKFLDKEWAWVKELLAEHPAELAEVEAARAARLAELRAEVEAKVAA
Q: How did the “apparent Kd (screen)” value turn out when B17 was run?
A: 8.56 nM

B18: A76K (designed binder)
chain: MTLQELLREEALRRAEAEAFRYALELLAEKFPEQKEYLLDLAEEIESQIRSLSGVDVEDVRKFLDKEWAWVKELLKEHPAELAEVEAARAARLAELRAEVEAKVAA
Q: Which “apparent Kd (screen)” value does the source give for B18 here?
A: 0.718 nM

B19: E36D (designed binder)
chain: MTLQELLREEALRRAEAEAFRYALELLAEKFPEQKDYLLDLAEEIESQIRSLSGVDVEDVRKFLDKEWAWVKELLAEHPAELAEVEAARAARLAELRAEVEAKVAA
Q: With B19 as the binder, how does the “apparent Kd (screen)” value read?
A: 0.49 nM

B20: R61V (designed binder)
chain: MTLQELLREEALRRAEAEAFRYALELLAEKFPEQKEYLLDLAEEIESQIRSLSGVDVEDVVKFLDKEWAWVKELLAEHPAELAEVEAARAARLAELRAEVEAKVAA
Q: Which “apparent Kd (screen)” value does the source give for B20 here?
A: 0.593 nM

B21: L52R (designed binder)
chain: MTLQELLREEALRRAEAEAFRYALELLAEKFPEQKEYLLDLAEEIESQIRSRSGVDVEDVRKFLDKEWAWVKELLAEHPAELAEVEAARAARLAELRAEVEAKVAA
Q: With B21 as the binder, how does the “apparent Kd (screen)” value read?
A: 11.4 nM

B22: A11F (designed binder)
chain: MTLQELLREEFLRRAEAEAFRYALELLAEKFPEQKEYLLDLAEEIESQIRSLSGVDVEDVRKFLDKEWAWVKELLAEHPAELAEVEAARAARLAELRAEVEAKVAA
Q: For B22, which “apparent Kd (screen)” value is on record?
A: 0.718 nM

B23: E84V (designed binder)
chain: MTLQELLREEALRRAEAEAFRYALELLAEKFPEQKEYLLDLAEEIESQIRSLSGVDVEDVRKFLDKEWAWVKELLAEHPAELAVVEAARAARLAELRAEVEAKVAA
Q: Which “apparent Kd (screen)” value does the source give for B23 here?
A: 0.49 nM

B24: A69W (designed binder)
chain: MTLQELLREEALRRAEAEAFRYALELLAEKFPEQKEYLLDLAEEIESQIRSLSGVDVEDVRKFLDKEWWWVKELLAEHPAELAEVEAARAARLAELRAEVEAKVAA
Q: With B24 as the binder, how does the “apparent Kd (screen)” value read?
A: 0.539 nM

B25: E101D (designed binder)
chain: MTLQELLREEALRRAEAEAFRYALELLAEKFPEQKEYLLDLAEEIESQIRSLSGVDVEDVRKFLDKEWAWVKELLAEHPAELAEVEAARAARLAELRAEVDAKVAA
Q: For B25, which “apparent Kd (screen)” value is on record?
A: 0.49 nM

B26: E95K (designed binder)
chain: MTLQELLREEALRRAEAEAFRYALELLAEKFPEQKEYLLDLAEEIESQIRSLSGVDVEDVRKFLDKEWAWVKELLAEHPAELAEVEAARAARLAKLRAEVEAKVAA
Q: Which “apparent Kd (screen)” value does the source give for B26 here?
A: 0.539 nM

B27: S51C (designed binder)
chain: MTLQELLREEALRRAEAEAFRYALELLAEKFPEQKEYLLDLAEEIESQIRCLSGVDVEDVRKFLDKEWAWVKELLAEHPAELAEVEAARAARLAELRAEVEAKVAA
Q: With B27 as the binder, how does the “apparent Kd (screen)” value read?
A: 1.05 nM

B28: A106M (designed binder)
chain: MTLQELLREEALRRAEAEAFRYALELLAEKFPEQKEYLLDLAEEIESQIRSLSGVDVEDVRKFLDKEWAWVKELLAEHPAELAEVEAARAARLAELRAEVEAKVAM
Q: How did the “apparent Kd (screen)” value turn out when B28 was run?
A: 0.718 nM

B29: V100Q (designed binder)
chain: MTLQELLREEALRRAEAEAFRYALELLAEKFPEQKEYLLDLAEEIESQIRSLSGVDVEDVRKFLDKEWAWVKELLAEHPAELAEVEAARAARLAELRAEQEAKVAA
Q: B29 was tested. Which “apparent Kd (screen)” value did it give?
A: 0.718 nM

B30: E16I (designed binder)
chain: MTLQELLREEALRRAIAEAFRYALELLAEKFPEQKEYLLDLAEEIESQIRSLSGVDVEDVRKFLDKEWAWVKELLAEHPAELAEVEAARAARLAELRAEVEAKVAA
Q: For B30, which “apparent Kd (screen)” value is on record?
A: 0.539 nM

B31: E43K (designed binder)
chain: MTLQELLREEALRRAEAEAFRYALELLAEKFPEQKEYLLDLAKEIESQIRSLSGVDVEDVRKFLDKEWAWVKELLAEHPAELAEVEAARAARLAELRAEVEAKVAA
Q: With B31 as the binder, how does the “apparent Kd (screen)” value read?
A: 0.79 nM

B32: V104I (designed binder)
chain: MTLQELLREEALRRAEAEAFRYALELLAEKFPEQKEYLLDLAEEIESQIRSLSGVDVEDVRKFLDKEWAWVKELLAEHPAELAEVEAARAARLAELRAEVEAKIAA
Q: B32 was tested. Which “apparent Kd (screen)” value did it give?
A: 0.718 nM

B33: W68D (designed binder)
chain: MTLQELLREEALRRAEAEAFRYALELLAEKFPEQKEYLLDLAEEIESQIRSLSGVDVEDVRKFLDKEDAWVKELLAEHPAELAEVEAARAARLAELRAEVEAKVAA
Q: With B33 as the binder, how does the “apparent Kd (screen)” value read?
A: 12.5 nM

B34: E67M (designed binder)
chain: MTLQELLREEALRRAEAEAFRYALELLAEKFPEQKEYLLDLAEEIESQIRSLSGVDVEDVRKFLDKMWAWVKELLAEHPAELAEVEAARAARLAELRAEVEAKVAA
Q: Which “apparent Kd (screen)” value does the source give for B34 here?
A: 1.27 nM

B35: R92F (designed binder)
chain: MTLQELLREEALRRAEAEAFRYALELLAEKFPEQKEYLLDLAEEIESQIRSLSGVDVEDVRKFLDKEWAWVKELLAEHPAELAEVEAARAAFLAELRAEVEAKVAA
Q: How did the “apparent Kd (screen)” value turn out when B35 was run?
A: 0.49 nM
